The target of one test is T1, GPR56^N (Mus musculus, UniProt Q8K209).
T1 construct: Using the soluble N-terminal fragment of GPR56 (GPR56^N); made in house
In words: In vitro biotinylation/proteomics pull-down from mixed glial cell lysate with mass spectrometry. The conditions noted are these: peptide sequences specific for binding to GPR56^N.
From the text: To identify the ligand of GPR56 in OPCs, an in vitro biotinylation/proteomics approach was employed using single-step capture on streptavidin beads to purify the binding partner(s) of GPR56 (FIGS. 2A-2B). Proteins with more than five identified tryptic peptides in the Mass Spectrometry (MS) output from three independent experiments are listed at Table 1.
(§1) GPR56^N and GPR56^Ndel fusions proteins with either mFc or hFc tag were generated as previously described (Luo et al. Proc Natl Acad Sci USA 108, 12925-12930, 2011). BirA enzyme was used to in vitro biotinylate GPR56^N-mFc-biotag protein as previously described (De Laurenzi and Melino Mol Cell Biol 21, 148-155, 2001). Mixed glial cell lysate was incubated with biotinylated GPR56^N protein in lysis buffer [20 mM Hepes (pH 7.3), 150 mM NaCl, and 5 mM MgCl2] with protein inhibitor mixture (Roche Molecular Biochemicals) and 1% Brij 96 (Fluka). Streptavidin beads (Sigma) were used to affinity purify immunocomplexes. GPR56-associated proteins were eluted in 2×SDS loading buffer, subjected to SDS/PAGE. The whole lane was used for MS at the Taplin Biological Mass Spectrometry at Havard Medical School. MS data were searched against the mouse International Protein Index (IPI mouse 339) database using the protein identification software Mascot (v2.2.04, Matrix Sciences) (Luo et al. Proc Natl Acad Sci USA 108, 12925-12930, 2011).
as §1, with “al.,” for “al.”, “(Stacey et al., J” for “(De Laurenzi and Melino Mol Cell”, “Chem 277, 29283-29293, 2002).” for “21, 148-155, 2001).”, “(20” for “[20”, “[pH 7.3],” for “(pH 7.3),”, “MgCl2)” for “MgCl2]”

Test [1] addresses Plectin (Plec), mouse, endogenous (mixed glial cell lysate) (mouse) (UniProt Q9QXS1). In words: streptavidin pull-down of biotinylated GPR56^N-mFc from mixed glial cell lysate, tryptic peptide mass spectrometry.
For test [2], the target named is Transglutaminase 2 (Tgm2), mouse, endogenous (mixed glial cell lysate / microglia-derived) (mouse) (UniProt P21981). Described as above.
Transglutaminase 2 (Tgm2), mouse, endogenous (mixed glial cell lysate / microglia-derived) (mouse), sequence (P21981 2-686 limits assumed): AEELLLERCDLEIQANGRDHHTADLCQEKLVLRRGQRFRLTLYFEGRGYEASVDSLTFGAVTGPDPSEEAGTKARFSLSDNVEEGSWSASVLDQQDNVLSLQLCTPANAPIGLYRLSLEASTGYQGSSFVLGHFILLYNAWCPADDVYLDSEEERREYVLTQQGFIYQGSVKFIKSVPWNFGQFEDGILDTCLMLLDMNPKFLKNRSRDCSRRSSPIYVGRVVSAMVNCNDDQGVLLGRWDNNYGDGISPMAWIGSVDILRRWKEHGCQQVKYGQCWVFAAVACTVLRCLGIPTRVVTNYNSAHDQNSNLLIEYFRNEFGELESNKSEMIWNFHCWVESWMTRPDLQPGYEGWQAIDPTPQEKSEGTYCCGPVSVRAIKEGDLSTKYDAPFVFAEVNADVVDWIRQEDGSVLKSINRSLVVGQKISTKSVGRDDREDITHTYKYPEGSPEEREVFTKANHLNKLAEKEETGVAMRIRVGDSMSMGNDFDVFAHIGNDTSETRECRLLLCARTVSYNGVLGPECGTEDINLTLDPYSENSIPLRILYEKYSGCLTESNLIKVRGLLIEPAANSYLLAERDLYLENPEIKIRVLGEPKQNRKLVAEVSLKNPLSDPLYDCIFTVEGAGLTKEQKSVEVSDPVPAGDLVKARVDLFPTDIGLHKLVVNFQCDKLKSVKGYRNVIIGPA
Test [3] relates to oligodendrocyte precursors (OPCs). Nature of the test: OPC proliferation on laminin-111 or fibronectin with recombinant TG2. Type of test: cell-based, mouse. The text has this:
P=0.70 (control vs. TG2-W241A); **P=0.0088 (TG2 vs. TG2-W241A). […] FIG. 16D depicts a Western blot of active RhoA (top panel) and total RhoA (bottom panel) in the corpus callosum (CC) of Tgm2^+/+ and Tgm2^−/− mice. FIG. 16E is a graph showing that the relative level of active RhoA to total RhoA was diminished in the CC of Tgm2^−/− mice compared to […]. *P=0.0207, unpaired t-test, N=3 per genotype. FIG. 16F depicts a Western blot of GPR56^N in the supernatant of HEK 293T cell culture after exposed to either TG2 or TG2+laminin-111 (top panel), GTP-RhoA (middle panel) and total RhoA (lower panel) in HEK 293T cell pellet exposed to either TG2 or TG2+laminin-111. FIG. 16G is a graph showing that released GPR56 NTF was increased in the presence of both TG2 and laminin-111. ***P=0.0002; One-way ANOVA followed by Tukey post-hoc test, F (2,6)=49.66, n.s. P=0.95 (control vs. TG2); ***P=0.0003 (control vs. TG2+laminin-111); ***P=0.0004 (TG2 vs. TG2+laminin-111); N=3 per treatment group. FIG. 16H is a graph showing that the relative level of GTP-RhoA to total RhoA was increased in the presence of both TG2 and laminin-111, corresponding to the increased GPR56 NTF in the supernatant. **P=0.0028; One-way ANOVA followed by Tukey post-hoc test, F (2,6)=18.19, n.s. P=0.75 (control vs. TG2); **P=0.0035 (control vs. TG2+laminin-111); **P=0.0071 (TG2 vs. TG2+laminin-111) N=3 per treatment group. Error bars are mean±s.e.m in FIGS. 16E, 16G, and 16H.
To establish conditions for mechanistic investigation of the function of TG2 on OPC GPR56 during myelination and remyelination, in vitro experiments were performed with wt and Gpr56^−/− oligodendrocyte precursors (OPCs) and human recombinant TG2. […] TG2 is an extracellular protein with intrinsic transamidation activity, capable of cross-linking ECM proteins, including laminin-111 (Aeschlimann et al., J Biol Chem 267, 11316-11321, 1992; Belkin, FEBS J 278, 4704-4716, 2011). […] To confirm that TG2 regulates OPC proliferation in a GPR56-dependent manner, OPCs derived from P5 Gpr56^+/+ or Gpr56^−/− pups were cultured in the presence of laminin-111, with or without recombinant TG2. TG2-associated proliferation was attenuated in Gpr56^−/− OPCs (FIG. 16C), further supporting a GPR56-dependent TG2 function on OPC proliferation.
Oligodendrocyte precursor cells (OPCs) were isolated from mixed male and female P5-8 Gpr56^+/+ or Gpr56^−/− mouse forebrains as previously described (Wang et al., Neuron 29, 603-614, 2001; Watkins et al., Neuron 60, 555-569, 2008). Briefly, OPCs were purified by negatively selecting with mouse anti-Thy 1.2 (Serotec, Cat #MCA02R) and mouse anti-GalC (Millipore, Cat #MAB342), followed by mouse anti-04 (04 hybridoma supernatant) for positive selection. After releasing OPCs from the 04 plate by trypsinization, cells were resuspended in proliferation media containing PDGF-AA and NT-3 (PreproTech). OPCs were plated on coverslips coated with poly-D-lysine before coating with laminin I (R&D Systems, Cat #3400-010-01) or fibronectin (Millipore, Cat #341668) as previously described (Dugas et al., J Neurosci 26, 10967-10983, 2006). After 24 hr, TG2 (2 nM) was added to the cultures and incubated for an additional 24 hr before fixation with 4% PFA and staining for PDGFRα and Ki67.

T1 sequence (Q8K209 26-382 limits assumed): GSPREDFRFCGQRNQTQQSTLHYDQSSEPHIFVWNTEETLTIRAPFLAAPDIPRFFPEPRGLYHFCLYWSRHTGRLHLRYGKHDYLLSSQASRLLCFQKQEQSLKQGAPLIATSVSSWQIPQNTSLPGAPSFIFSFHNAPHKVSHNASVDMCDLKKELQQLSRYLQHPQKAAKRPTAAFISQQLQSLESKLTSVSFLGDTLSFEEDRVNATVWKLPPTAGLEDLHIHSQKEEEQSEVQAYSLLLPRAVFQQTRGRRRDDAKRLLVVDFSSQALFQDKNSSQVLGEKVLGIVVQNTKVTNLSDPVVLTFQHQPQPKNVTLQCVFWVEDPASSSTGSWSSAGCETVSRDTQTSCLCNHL

Regarding “Plectin (Plec): protein from mixed glial cell lysate purified with GPR56^N”, the “Peptide Number (Exp1)” value with GPR56^N (experiment 1) was found to be 21. Moreover, the “Peptide Number (Exp2)” value with GPR56^N (experiment 2) is 22. Also, the “Peptide Number (Exp3)” value with GPR56^N (experiment 3) amounted to 23.

In the case of “biotinylated GPR56^N-mFc-biotag protein (Fc fusion)”, in test [1], the Peptide Number (Exp1) amounted to 21 peptides, the Peptide Number (Exp2) was determined as 22 peptides and the Peptide Number (Exp3) was 23 peptides. In addition, in test [2], the Peptide Number (Exp1) is 19 peptides, the Peptide Number (Exp2) was 20 peptides and the Peptide Number (Exp3) was 17 peptides.

On to fibronectin [reference compound], for which the OPC proliferation result in test [3] (wt OPCs, fibronectin as specificity control in place of laminin-111, with recombinant TG2) is given as “inert”.

B1: TG2-W241A: transamidation-inactive, enzymatic dead mutant TG2 protein (protein)
chain: MAEELVLERCDLELETNGRDHHTADLCREKLVVRRGQPFWLTLHFEGRNYEASVDSLTFSVVTGPAPSQEAGTKARFPLRDAVEEGDWTATVVDQQDCTLSLQLTTPANAPIGLYRLSLEASTGYQGSSFVLGHFILLFNAWCPADAVYLDSEEERQEYVLTQQGFIYQGSAKFIKNIPWNFGQFEDGILDICLILLDVNPKFLKNAGRDCSRRSSPVYVGRVVSGMVNCNDDQGVLLGRADNNYGDGVSPMSWIGSVDILRRWKNHGCQRVKYGQCWVFAAVACTVLRCLGIPTRVVTNYNSAHDQNSNLLIEYFRNEFGEIQGDKSEMIWNFHCWVESWMTRPDLQPGYEGWQALDPTPQEKSEGTYCCGPVPVRAIKEGDLSTKYDAPFVFAEVNADVVDWIQQDDGSVHKSINRSLIVGLKISTKSVGRDEREDITHTYKYPEGSSEEREAFTRANHLNKLAEKEETGMAMRIRVGQSMNMGSDFDVFAHITNNTAEEYVCRLLLCARTVSYNGILGPECGTKYLLNLNLEPFSEKSVPLCILYEKYRDCLTESNLIKVRALLVEPVINSYLLAERDLYLENPEIKIRILGEPKQKRKLVAEVSLQNPLPVALEGCTFTVEGAGLTEEQKTVEIPDPVEAGEEVKVRMDLLPLHMGLHKLVVNFESDKLKAVKGFRNVIIGPA
In the case of B1, the “OPC proliferation, wild type TG2 vs enzymatic dead mutant” value in test [3] (versus control, One-way ANOVA, Tukey post-hoc) was “failed to promote OPC proliferation and n.s”.

(Values after patent US12358959B2, “Compositions and methods for oligodendrocyte development” (CHILDREN'S MEDICAL CENTER CORPORATION, priority 2016, dated 2025).)
